Results on two substances are retold here after article PMC3196555.

One test has as its target myc-SH2B3 (human) (UniProt Q9UQQ2). The experiment in a line: co-IP; 293T cells transfected with pCMV5-TrkA and a myc construct, 100 ng/ml NGF for 15 min; RIPA lysate precipitated with anti-myc antibody, blotted with anti-myc and anti-TrkA.
A further test addresses TrkA (UniProt P35739). The experiment in a line: co-IP; 293T cells transfected with pCMV5-TrkA and a myc construct, 100 ng/ml NGF for 15 min; RIPA lysate precipitated with anti-TrkA antibody, blotted with anti-TrkA and anti-myc.

Chain of TrkA (P35739 33-799): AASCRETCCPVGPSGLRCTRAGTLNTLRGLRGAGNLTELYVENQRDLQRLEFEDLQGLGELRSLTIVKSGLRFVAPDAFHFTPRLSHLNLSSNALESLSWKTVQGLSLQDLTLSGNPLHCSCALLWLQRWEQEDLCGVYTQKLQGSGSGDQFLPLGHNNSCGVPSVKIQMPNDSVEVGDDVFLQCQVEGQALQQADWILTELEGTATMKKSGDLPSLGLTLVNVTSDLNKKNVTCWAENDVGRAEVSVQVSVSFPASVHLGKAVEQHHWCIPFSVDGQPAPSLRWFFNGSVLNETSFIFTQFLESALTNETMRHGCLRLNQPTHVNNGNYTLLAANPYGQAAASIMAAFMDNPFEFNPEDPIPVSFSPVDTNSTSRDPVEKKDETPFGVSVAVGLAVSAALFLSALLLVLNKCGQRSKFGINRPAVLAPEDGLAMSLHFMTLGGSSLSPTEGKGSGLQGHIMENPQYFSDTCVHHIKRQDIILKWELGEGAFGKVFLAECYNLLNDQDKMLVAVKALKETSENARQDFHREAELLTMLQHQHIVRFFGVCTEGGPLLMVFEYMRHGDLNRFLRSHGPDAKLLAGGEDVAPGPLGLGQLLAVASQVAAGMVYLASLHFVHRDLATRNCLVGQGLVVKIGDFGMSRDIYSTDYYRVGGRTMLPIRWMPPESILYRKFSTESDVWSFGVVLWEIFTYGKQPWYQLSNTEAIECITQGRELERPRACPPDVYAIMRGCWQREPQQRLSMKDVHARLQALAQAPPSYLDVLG

Turning to “TrkA (from UniProt P35739 33-799) (receptor)”, the relative amount of TrkA co-precipitated, as percent of that with SH2B1β in the test with myc-SH2B3 (human) came to 10%.

With “myc-SH2B3 (from UniProt Q9UQQ2 1-575) (natural protein)”, in the test with TrkA, the relative amount co-precipitated with TrkA, as percent of SH2B1β was found to be 88%.
